“And” between values parts separate entries of the source, which are not always exact repeats. Equal values may be shown once. Read-outs that look alike come from different tables or passages of the source.

The values below come from patent US20120094909A1 (Bristol-Myers Squibb, published 2012).

For experiment [1], the target named is T1, human PCSK9 (proprotein convertase subtilisin kexin type 9) (human, UniProt Q8NBP7 31-692).
T1 construct: Directly immobilized (SPR ProteOn), biotinylated (BLI), or in solution, depending on the assay; also called hPCSK9
Nature of the experiment: BLI Octet Red, 37 C. The method, then:
Tips were then immersed into a buffer-only well for observation of Adnectin dissociation. Experiments were performed in a temperature controlled environment at either 25 or 37° C., and the oscillation speed was set at 1500 rpm.
Binding interaction analysis was performed using proprietary software from Fortebio (Fortebio Data Analysis Software version 6.3.0.36). Global fits were performed for all samples, using a 1:1 binding model. The nature of these global fits constrained all values of concentration to a single pair of association and dissociation rates that were themselves constrained to each other. Affinities (KD), association and dissociation rates were averaged over the various loading levels used in the analysis.
(In BLI a coated tip is dipped into the sample, and binding shifts an interference pattern.)

The target in experiment [2] is T1, human PCSK9 (proprotein convertase …). Nature of the experiment: FRET, competitor EGFA peptide. An excerpt:
(§1) Table 11 summarizes the overall data from these three FRET assays.

The target of experiment [3] is T2, cynomolgus monkey PCSK9 (cynomolgus monkey, UniProt A0A7N9D9N8 150-747).
T2 construct: also called cyno PCSK9; cPCSK9
The experiment in a line: FRET, competitor EGFA peptide.
From the text: as §1

In experiment [4] the target is T1, human PCSK9 (proprotein convertase …). Nature of the experiment: BLI, biotinylated hPCSK9 on sensor tips.
Experiment [5] has the same target. Nature of the experiment: FRET, competitor ATI001125.
From the text: as §1

Experiment [6] concerns the target cynomolgus monkey PCSK9 (cynomolgus monkey, UniProt A0A7N9D9N8 150-747). The experiment in a line: FRET, competitor EGFA peptide.
From the text: as §1

The target of experiment [7] is T1, human PCSK9 (proprotein convertase …). The experiment in a line: FRET direct binding, anti-his6 antibody.
From the text: as §1

In experiment [8] the target is T3, human serum albumin (human, UniProt P02768 25-609).
T3 construct: also called HSA
The experiment in a line: SPR (Biacore), albumin captured on chip, SABA in flow. The method, then:
(§2) The kinetics of selected SABA clones purified from HTPP and/or midscaled material described in Examples 5A and 5B were determined by capturing the respective serum albumin (HSA/RhSA/MuSA) on the surface of a Biasensor CMS chip and flowing a concentration series of SABAs over both the reference flow cell and the captured albumins. In addition, binding to albumin was carried out under various pH conditions ranging from pH 5.5 to pH 7.4.

Experiment [9] addresses T4, rhesus serum albumin (rhesus, UniProt Q28522 17-600).
T4 construct: also called RhSA
The experiment is described as above. The method, then: as §2

For experiment [10], the target named is T5, murine serum albumin (mouse, UniProt P07724 25-608).
T5 construct: also called MuSA; mouse serum albumin
Nature of the experiment: SPR, captured albumin. On the procedure: as §2
Background: SPR reads the build-up and loss of mass on a sensor chip optically.

Experiment [11] concerns the target T6, human PCSK9 (proprotein convertase subtilisin kexin type 9) (human, UniProt Q8NBP7 31-692).
T6 construct: immobilized directly (ProteOn), biotinylated (Octet) or in solution, according to the assay; also called hPCSK9; PCSK9-AF647 (labelled form)
The experiment in a line: SPR (ProteOn), 25 C.

Experiment [12] deals with T6, human PCSK9 (proprotein convertase …). Nature of the experiment: cell-based or functional assay.
The target is the same in experiment [13]. The experiment in a line: PCSK9:EGFA FRET, competitor EGFA peptide.
Experiment [14] has the same target. The experiment in a line: cell-based or functional assay. This is another data set of the same source.
Experiment [15] deals with T1, human PCSK9 (proprotein convertase …). The experiment in a line: SPR ProteOn, 25 C. On the procedure: (§3) The binding characteristics were characterized by Surface Plasmon Resonance (SPR). […] This allowed kinetic determination in the absence of regeneration. […] Evaluation of the kinetic parameters was performed using the Langmuir interaction model and constant parameter fitting with the ProteOn Manager software.

Experiment [16] has the same target. The experiment in a line: cell-based or functional assay. The source holds these as a separate data set.
For experiment [17] the target is unchanged. Nature of the experiment: FRET, competitor ATI000972.
From the text: as §1

For experiment [18] the target is unchanged. Nature of the experiment: SPR ProteOn, PCSK9 immobilized, 25 C. On the procedure:
as §3

B1: 2382D05 (designed binder)
chain: MGVSDVPRDLEVVAATPTSLLISWDAPADGGYGYYRITYGETGGNSPVQEFTVPVSKGTATISGLKPGVDYTITVYAVEFDFPGAGYYHRPISINYRTEIDKPSQHHHHHH
notes: Anti-PCSK9 Adnectin, His6-tagged; Same entry as 2451B06
B1: binding in [1] was characterised by a dissociation constant (Kd) of 0.314 nM. In experiment [2], this molecule had an EC50 of 2.6 nM. In [3], this molecule returned an EC50 of 57.8 nM. In experiment [4], this molecule had a Kd of 0.314 nM, a koff of 0.000157 s⁻¹ and an on-rate constant (kon) of 505000 M⁻¹ s⁻¹.

B2: 2451B06 (designed binder)
chain: MGVSDVPRDLEVVAATPTSLLISWDAPADGGYGYYRITYGETGGNSPVQEFTVPVSKGTATISGLKPGVDYTITVYAVEFDFPGAGYYHRPISINYRTEIDKPSQHHHHHH
notes: Anti-PCSK9 Adnectin, His6-tagged; also called 2451B06 (equivalent to 2382D05)
Turning to B2, the figures for the EC50 in [2] and in experiment [3] were 4.5 nM and 57.8 nM, respectively.

B3: 2382H03 (designed binder)
chain: MGVSDVPRDLEVVAATPTSLLISWDAPAEGAYGYYRITYGETGGNSPVQEFTVPVSKGTATISGLKPGVDYTITVYAVEYPYPFAGYYHRPISINYRTEIDKPSQHHHHHH
notes: Anti-PCSK9 Adnectin, His6-tagged
B3: the Kd in [1] and in experiment [4] was 0.677 nM in each case. Further, the IC50 in experiment [5] amounted to 0.3 nM; in [2], 3.4 nM. The EC50 in experiment [2] was 3.4 nM; in [6] it was 19.8 nM; in [7], 3.8 nM. Also, the koff in [4] was determined as 0.000557 s⁻¹. This molecule displayed a kon in experiment [4] of 471000 M⁻¹ s⁻¹.

B4: SABA3.1 (designed binder)
chain: MGVSDVPRDLEVVAATPTSLLISWSNDGPGLSYYRITYGETGGNSPVQEFTVPSSQTTATISGLKPGVDYTITVYAVSYYTKKAYSAGPISINYRTEIDKPSQHHHHHH
notes: also called clone 1245H07
Turning to B4, in experiment [8], the Kd came out at 863 nM and the koff is 0.0682 s⁻¹. In experiment [9], this molecule gave a Kd of 431 nM and a koff of 0.0337 s⁻¹.

B5: SABA2.1 (designed binder)
chain: MGVSDVPRDLEVVAATPTSLLISWPKYDKTGHYYRITYGETGGNSPVQEFTVPTRQTTATISGLKPGVDYTITVYAVSKDDYYPHEHRPISINYRTEIDKPSQHHHHHH
For B5, in experiment [10], the binding result was “no binding”.

B6: 2382F05 (designed binder)
chain: MGVSDVPRDLEVVAATPTSLLISWDAPAEAGKHYGYYRITYGETGGNSPVQEFTVPVSKGTATISGLKPGVDYTITVYAVEFDFPGAGYYHRPISINYRTEIDKPSQHHHHHH
notes: as for B3
Regarding B6, the Kd in experiment [1] and in experiment [4] was 4.54 nM in each case. Moreover, the IC50 in experiment [5] is 0.9 nM; in experiment [2] it was 2.4 nM. In addition, the values for the EC50 in [2], in experiment [6] and in experiment [7] were 2.4 nM, 14.6 nM and 3.8 nM, respectively. In [4], this molecule came in with an off-rate constant (koff) of 0.00109 s⁻¹. The same molecule yielded a kon in experiment [4] of 244000 M⁻¹ s⁻¹.

B7: 1922G04 (designed binder)
chain: MGVSDVPRDLEVVAATPTSLLISWRPPSHAYGYYRITYGETGGNSPVQEFTVPIGKGTATISGLKPGVDYTITVYAVEYPWKGSGYYHRPISINYRTEIDKPSQHHHHHH
notes: also called ATI001057; ATI-1057
Regarding B7, the Kd in [11] turned out to be 0.09 nM. In [12], the “LDLR Depletion (% inhibition at 75 nM)” value amounted to 105% and the “LDLR Depletion EC50” value stood at 10 nM. This molecule gave an EC50 in experiment [13] of 1.2 nM.

B8: 2011H05 (designed binder)
chain: MGVSDVPRDLEVVAATPTSLLISWVPSSHAYGYYRITYGETGGNSPVQEFTVPVGVGTATISGLKPGVDYTITVYAVEYAFEGAGYYHRPISINYRTEIDKPSQHHHHHH
notes: also called ATI001091
Turning to B8, in experiment [14], the “EC50 (nM), PCSK9-induced LDLR depletion from HepG2 cell surface” value was found to be 8.85 nM and the “percentage of PCSK9 inhibition at 75 nM” value was determined as 177%. Further, the affinity in [11], expressed as Kd, was 0.08 nM. In addition, in experiment [12], the “LDLR Depletion (% inhibition at 75 nM)” value was 198% and the “LDLR Depletion EC50” value worked out at 12 nM. Also, in [13], the EC50 is 2.7 nM.

B9: 1923B02 (designed binder)
chain: MGVSDVPRDLEVVAATPTSLLISWTPPPKGYGYYRITYGETGGNSPVQEFTVPVGEGTATISGLKPGVDYTITVYAVEYTYNGAGYYHRPISINYRTEIDKPSQHHHHHH
In experiment [11], B9 came in with a Kd of 0.173 nM. In [12], the “LDLR Depletion (% inhibition at 75 nM)” value worked out at 178% and the “LDLR Depletion EC50” value worked out at 23 nM. The molecule also had an EC50 in experiment [13] of 2.3 nM.

B10: 1923B02 (designed binder)
chain: MGVSDVPRDLEVVAATPTSLLISWTPPPKGYGYYRITYGETGGNSPVQEFTVPVGEGTATISGLKPGVDYTITVYAVEYTYNGAGYYHRPISINYRTEIDKPSQHHHHHH
notes: as for B3
With B10, binding in [15] was put at a Kd of 0.17 nM. The “LDLR Depletion EC50” value in experiment [16] is 23 nM. The IC50 stood at 3.2 nM in [17] and 2.3 nM in [2]. Also, the EC50 in [2] was found to be 2.3 nM; in experiment [6] it was 53.5 nM; in [7], 3.2 nM.

B11: 1784F03 (designed binder)
chain: MGVSDVPRDLEVVAATPTSLLISWRPPIHAYGYYRITYGETGGNSPVQEFTVPIVEGTATISGLKPGVDYTITVYAVEYTFKHSGYYHRPISINYRTEIDKPSQHHHHHH
notes: as for B3
Turning to B11, the “LDLR Depletion EC50” value in [16] was determined as 26 nM. Moreover, the concentration for half-maximal inhibition (IC50) was 1.9 nM in experiment [17], 2 nM in [2] and 106 nM in [6]. Moreover, the values for the concentration for a half-maximal effect (EC50) in [2], in experiment [6] and in [7] were 2.01 nM, 106 nM and 1.6 nM, respectively.

B12: 1813E02 (designed binder)
chain: MGVSDVPRDLEVVAATPTSLLISWSPPANGYGYYRITYGETGGNSPVQEFTVPVGRGTATISGLKPGVDYTITVYAVEYTYKGSGYYHRPISINYRTEIDKPSQHHHHHH
notes: as for B3
As to B12, the “LDLR Depletion EC50” value in experiment [16] was 16 nM. The values for the IC50 in experiment [17], in [2] and in experiment [6] were 2.4 nM, 1.3 nM and 118 nM, respectively. Moreover, the half-maximal effective concentration (EC50) is 2.7 nM in experiment [2], 118 nM in experiment [6] and 2.3 nM in [7].

B13: 1459D05 (designed binder)
chain: MGVSDVPRDLEVVAATPTSLLISWPPPSHGYGYYRITYGETGGNSPVQEFTVPPGKGTATISGLKPGVDYTITVYAVEYPYKHSGYYHRPISINYRTEIDKPSQHHHHHH
notes: also called ATI000891; ATI-891
With B13, the Kd in [15] was found to be 1.58 nM; in experiment [1], 14.4 nM; in experiment [18], 1.58 nM. Moreover, the “LDLR Depletion EC50” value in [16] is greater than 200 nM. The IC50 in experiment [17] worked out at 14 nM; in experiment [2], 4 nM; in experiment [6], 2300 nM. Besides, the results for the EC50 in [2], in experiment [6] and in experiment [7] were 5.8 nM, greater than 1000 nM and 3.9 nM, respectively. In addition, the koff in experiment [18] turned out to be 0.00018 s⁻¹. The kon is 113000 M⁻¹ s⁻¹ in experiment [18]; 149000 M⁻¹ s⁻¹ and 108000 M⁻¹ s⁻¹ in experiment [4].

B14: 2451C06 (designed binder)
chain: MGVSDVPRDLEVVAATPTSLLISWDAPAGAASYGYYRITYGETGGNSPVQEFTVPVSKGTATISGLKPGVDYTITVYAVEFPFPGAGYYHRPISINYRTEIDKPSQHHHHHH
notes: as for B3
For the molecule B14, the dissociation constant Kd in [1] and in [4] was 1.27 nM throughout. The IC50 in experiment [5] is 0.4 nM; in experiment [2] it was 1.2 nM. The EC50 in [2] was 1.2 nM; in experiment [6] it was 24.7 nM; in experiment [7], 5.5 nM. In [4], this molecule came in with a koff of 0.000435 s⁻¹. Besides, the kon in experiment [4] is 347000 M⁻¹ s⁻¹.

As usually defined, the Kd is the concentration at which binding is half-saturated. What is called EC50 is the concentration giving half of the maximal effect. As usually defined, the koff is a measure of how fast the partners let go of each other. What is called kon is a measure of how fast the partners come together. By IC50 is commonly meant the concentration that inhibits the measured activity by half.
